Measured values: publication PMC7612262 (Structure (London, England : 1993), 2006)

Molecular target: the molecule itself
Assay: crystal structure

B1: MS2 coat protein Asn87Ser mutant (natural protein, bacteriophage MS2)
chain: ASNFTQFVLVDNGGTGDVTVAPSNFANGVAEWISSNSRSQAYKVTCSVRQSSAQNRKYTIKVEVPKVATQTVGGVELPVAAWRSYLSMELTIPIFATNSDCELIVKAMQGLLKDGNPIPSAIAANSGIY
binding result: binds

B2: MS2 coat protein Asn87Ser, Glu89Lys double mutant (natural protein, bacteriophage MS2)
chain: ASNFTQFVLVDNGGTGDVTVAPSNFANGVAEWISSNSRSQAYKVTCSVRQSSAQNRKYTIKVEVPKVATQTVGGVELPVAAWRSYLSMKLTIPIFATNSDCELIVKAMQGLLKDGNPIPSAIAANSGIY
binding result: binds
